The target of assay [1] is T1, 4H3969-AA.
T1 chain: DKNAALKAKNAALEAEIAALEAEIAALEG
Description: two-hybrid library CCmax.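 Note: natural log of median RNA to DNA barcode read ratio; higher means stronger binding.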 To be noted: mean of both orientations.

Assay [2] has as its target T2, 4H483-AA.
T2 chain: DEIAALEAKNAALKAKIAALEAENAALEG
Description: two-hybrid library CCmax.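 Note: natural log of median RNA to DNA barcode read ratio; higher means stronger binding.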 To be noted: mean of both orientations.

Assay [3] addresses T3, 4H465-AA.
T3 chain: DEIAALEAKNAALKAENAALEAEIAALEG
The assay is described as follows: two-hybrid library CCmax.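 Note: natural log of median RNA to DNA barcode read ratio; higher means stronger binding.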 To be noted: mean of both orientations.

Assay [4] deals with T4, 4H535-AA.
T4 chain: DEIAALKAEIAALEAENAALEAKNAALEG
Description: two-hybrid library CCmax.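 Note: natural log of median RNA to DNA barcode read ratio; higher means stronger binding.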 To be noted: mean of both orientations.

Assay [5] deals with T5, 4H717-AA.
T5 chain: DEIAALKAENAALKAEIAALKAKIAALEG
Description: two-hybrid library CCmax.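 Note: natural log of median RNA to DNA barcode read ratio; higher means stronger binding.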 To be noted: mean of both orientations.

The target of assay [6] is T6, 4H380-AA.
T6 chain: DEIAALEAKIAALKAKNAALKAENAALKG
Description: two-hybrid library CCmax.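 Note: natural log of median RNA to DNA barcode read ratio; higher means stronger binding.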 To be noted: mean of both orientations.

For assay [7], the target named is T7, 4H883-AA.
T7 chain: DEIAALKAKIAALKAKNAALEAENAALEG
The assay is described as follows: two-hybrid library CCmax. To be noted: mean of both orientations.

In assay [8] the target is T8, 4H464-AA.
T8 chain: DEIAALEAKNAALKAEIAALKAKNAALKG
Description: two-hybrid library CCmax. To be noted: mean of both orientations.

Assay [9] deals with T9, 4H486-AA.
T9 chain: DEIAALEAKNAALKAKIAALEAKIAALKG
The assay is described as follows: two-hybrid library CCmax. To be noted: mean of both orientations.

Assay [10] concerns the target T10, 4H953-AA.
T10 chain: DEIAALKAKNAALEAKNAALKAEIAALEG
The assay is described as follows: two-hybrid library CCmax. To be noted: mean of both orientations.

The target in assay [11] is T11, 4H797-AA.
T11 chain: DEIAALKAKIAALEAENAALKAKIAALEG
Description: two-hybrid library CCmax. To be noted: mean of both orientations.

In assay [12] the target is T12, 4H63-AA.
T12 chain: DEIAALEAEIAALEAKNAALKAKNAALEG
Description: two-hybrid library CCmax. To be noted: mean of both orientations.

Assay [13] addresses T13, 4H3782-AA.
T13 chain: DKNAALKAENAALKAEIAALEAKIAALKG
Description: two-hybrid library CCmax.

The target of assay [14] is T14, 4H687-AA.
T14 chain: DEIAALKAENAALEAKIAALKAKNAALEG
Description: two-hybrid library CCmax. To be noted: mean of both orientations.

Assay [15] addresses T15, 4H918-AA.
T15 chain: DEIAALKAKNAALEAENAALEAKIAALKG
The assay is described as follows: two-hybrid library CCmax. To be noted: mean of both orientations.

Assay [16] concerns the target T16, 4H_APH.
T16 chain: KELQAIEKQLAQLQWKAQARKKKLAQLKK
Description: two-hybrid library CCmax. To be noted: mean of both orientations.

Assay [17] concerns the target T17, 4H4001-AA.
T17 chain: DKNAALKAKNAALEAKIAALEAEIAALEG
The assay is described as follows: two-hybrid library CCmax. To be noted: mean of both orientations.

Assay [18] concerns the target GCN2_T. Description: two-hybrid library CCmax.
Assay [19] addresses T18, 4H3855-AA.
T18 chain: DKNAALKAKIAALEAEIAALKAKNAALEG
Description: two-hybrid library CCmax. To be noted: mean of both orientations.

Assay [20] concerns the target T19, 4H446-AA.
T19 chain: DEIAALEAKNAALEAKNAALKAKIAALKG
The assay is described as follows: two-hybrid library CCmax. To be noted: mean of both orientations.

The target of assay [21] is T20, 4H_BCR.
T20 chain: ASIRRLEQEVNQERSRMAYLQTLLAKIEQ
Description: two-hybrid library CCmax. To be noted: mean of both orientations.

Assay [22] deals with T21, 4H58-AA.
T21 chain: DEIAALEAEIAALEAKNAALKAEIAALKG
Description: two-hybrid library CCmax. To be noted: mean of both orientations.

Assay [23] addresses T22, 4H3939-AA.
T22 chain: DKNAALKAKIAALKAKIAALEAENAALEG
The assay is described as follows: two-hybrid library CCmax. To be noted: mean of both orientations.

Assay [24] has as its target T23, 4H967-AA.
T23 chain: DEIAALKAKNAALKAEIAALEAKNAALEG
The assay is described as follows: two-hybrid library CCmax. To be noted: mean of both orientations.

For assay [25], the target named is T24, 4H568-AA.
T24 chain: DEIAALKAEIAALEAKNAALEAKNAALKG
The assay is described as follows: two-hybrid library CCmax. To be noted: mean of both orientations.

The target in assay [26] is 4H_GCN4. Description: two-hybrid library CCmax. To be noted: mean of both orientations.
Chain of 4H_GCN4 (chain, as listed by the source): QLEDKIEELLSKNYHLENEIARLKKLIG
In assay [27] the target is T25, 4H895-AA.
T25 chain: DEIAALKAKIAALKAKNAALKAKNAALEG
Description: two-hybrid library CCmax. To be noted: mean of both orientations.

Assay [28] concerns the target T26, P9SHb.
T26 chain: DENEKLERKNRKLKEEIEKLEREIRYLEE
Description: two-hybrid library CCNG1.

For assay [29], the target named is T27, P7SHb.
T27 chain: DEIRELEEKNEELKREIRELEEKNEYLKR
The assay is described as follows: two-hybrid library CCNG1.

Assay [30] addresses T28, P6SHb.
T28 chain: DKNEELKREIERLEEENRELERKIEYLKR
The assay is described as follows: two-hybrid library CCNG1.

Assay [31] deals with T29, P8SHb.
T29 chain: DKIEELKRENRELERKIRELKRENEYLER
The assay is described as follows: two-hybrid library CCNG1.

B1: 4H3782-AA (peptide)
chain: DKNAALKAENAALKAEIAALEAKIAALKG
Regarding B1, the interaction score is -0.912 in assay [1]; -0.902 in assay [2]; -1.7 in assay [3]; -1.44 in assay [4]; 1.02 in [5]; -1.52 in assay [6]. For the same molecule, the interaction score in assay [7] is -1.27; in assay [8], -0.448; in assay [9] it was 1.41; in assay [10], -1.68; in assay [11] it was -1.45; in assay [12], -1.44. Further, the interaction score in [13] was 0.893; in [14], -0.545; in assay [15], -0.968; in assay [16] it was -2.26; in assay [17], -0.482; in assay [18], -1.87. Moreover, the interaction score was -0.587 in [19]; -1.07 in assay [20]; -1.19 in assay [21]; -1.38 in assay [22]; -0.413 in assay [23]; -1.19 in [24]. In addition, the interaction score in assay [25] is -1.41; in assay [26], -2.54; in assay [27] it was -1.54.

B2: P6SHb (peptide)
chain: DKNEELKREIERLEEENRELERKIEYLKR
For the molecule B2, the interaction score stood at 0.769 in [28], 0.946 in [29], 0.147 in assay [30] and 0.342 in [31].

Source of the values: PMC10397247.
